Source: patent US4587340A, “Biopterin analogs” (Burroughs Wellcome Co., priority 1984, dated 1986)

Assays:
[1] = substrate: C[C@H](O)[C@H](O)[C@H]1CNc2nc(N)[nH]c(=O)c2N1; experiment: purified protein, by the assay type
[2] = substrate: COCC1CNc2nc(N)[nH]c(=O)c2N1; experiment: Dihydropteridine reductase assay; format: biochemical; conditions: other: quinonoid dihydro form of the pterin
Method: Dihydropteridine reductase was assayed by the method of Craine, et al., (J. Biol. Chem., 247, 6082 (1972)).

[3] = substrate: COCC1CNc2nc(N)[nH]c(=O)c2N1; experiment: Tryptophan hydroxylase cofactor assay; format: biochemical
Method: Tryptophan hydroxylase was assayed according to a modification of the method of Renson J., et al (Biochem. Biophys. Acta 25: 504 (1966)).

[4] = substrate: C[C@H](O)[C@H](O)[C@H]1CNc2nc(N)[nH]c(=O)c2N1; experiment: cells, lysate or membranes named
[5] = substrate: COCC1CNc2nc(N)[nH]c(=O)c2N1; experiment: Phenylalanine hydroxylase cofactor assay; format: biochemical; conditions: other: rat liver enzyme

B1: Dihydropteridine reductase (Homo sapiens) (protein)
chain: MAAAAAAGEARRVLVYGGRGALGSRCVQAFRARNWWVASVDVVENEEASASIIVKMTDSFTEQADQVTAEVGKLLGEEKVDAILCVAGGWAGGNAKSKSLFKNCDLMWKQSIWTSTISSHLATKHLKEGGLLTLAGAKAALDGTPGMIGYGMAKGAVHQLCQSLAGKNSGMPPGAAAIAVLPVTLDTPMNRKSMPEADFSSWTPLEFLVETFHDWITGKNRPSSGSLIQVVTTEGRTELTPAYF
For B1, the Km ([1]; other: quinonoid dihydro form of the pterin) was 1.8 µM and the Km [2] was 7 µM.

B2: Tryptophan hydroxylase (Rattus norvegicus) (protein)
chain: MQPAMMMFSSKYWARRGLSLDSAVPEEHQILGGLTQNKATASKSEDKRSGKDTSESSKTAVVFSLKNEVGGLVRALRLFQEKHVNMLHIESRRSRRRSSEVEIFVDCECGKTEFNELIQLLKFQTTIVTLNPPDNIWTEEEELEDVPWFPRKISELDRCSHRVLMYGTELDADHPGFKDNVYRQRRKYFVDVAMGYKYGQPIPRVEYTEEETKTWGVVFRELSKLYPTHACREYLKNFPLLTKYCGYREDNVPQLEDVSMFLKERSGFTVRPVAGYLSPRDFLAGLAYRVFHCTQYVRHGSDPLYTPEPDTCHELLGHVPLLADPKFAQFSQEIGLASLGASDEDVQKLATCYFFTIEFGLCKQEGQLRAYGAGLLSSIGELKHALSDKACVKAFDPKTTCLQECLITTFQDAYFVSESFEEAKEKMRDFAKSITRPFSVYFNPYTQSIEILKDTRSIENVVQDLRSDLNTVCDALNKMNQYLGI
notes: The preparation of tryptophan hydroxylase was a crude 30,000xg supernatant; from tissue
In the case of B2, the Km [3] is reported as 103 µM and the Km [4] is reported as 82 µM.

B3: Phenylalanine hydroxylase (Rattus norvegicus) (protein)
chain: MAAVVLENGVLSRKLSDFGQETSYIEDNSNQNGAISLIFSLKEEVGALAKVLRLFEENDINLTHIESRPSRLNKDEYEFFTYLDKRTKPVLGSIIKSLRNDIGATVHELSRDKEKNTVPWFPRTIQELDRFANQILSYGAELDADHPGFKDPVYRARRKQFADIAYNYRHGQPIPRVEYTEEEKQTWGTVFRTLKALYKTHACYEHNHIFPLLEKYCGFREDNIPQLEDVSQFLQTCTGFRLRPVAGLLSSRDFLGGLAFRVFHCTQYIRHGSKPMYTPEPDICHELLGHVPLFSDRSFAQFSQEIGLASLGAPDEYIEKLATIYWFTVEFGLCKEGDSIKAYGAGLLSSFGELQYCLSDKPKLLPLELEKTACQEYSVTEFQPLYYVAESFSDAKEKVRTFAATIPRPFSVRYDPYTQRVEVLDNTQQLKILADSINSEVGILCNALQKIKS
notes: Phenylalanine hydroxylase was prepared from rat liver using hydrophobic chromatography; from tissue; host or cells: rat liver
Protein B3 has a Km ([1]; other: rat liver enzyme) of 7.9 µM and a Km [5] of 12.9 µM.
